Measured values taken from the supplement of paper PMC11246515.
± gives the standard deviation of the averaged measurements.

Assay: total protein half-life in vivo (active degradation + dilution); higher = more stable protein
[1] = E. coli NCM3722 delta-clpP delta-lon delta-hslV, growth: N-lim chemostat, doubling time 6 h
[2] = E. coli NCM3722 delta-clpP, growth: N-lim chemostat, doubling time 6 h
[3] = E. coli NCM3722 delta-hslV, growth: N-lim chemostat, doubling time 6 h
[4] = E. coli NCM3722 delta-lon, growth: N-lim chemostat, doubling time 6 h
[5] = E. coli NCM3722 delta-smpB, growth: N-lim chemostat, doubling time 6 h
[6] = wild type E. coli NCM3722, growth: C-lim chemostat, doubling time 3 h
[7] = wild type E. coli NCM3722, growth: C-lim chemostat, doubling time 6 h
[8] = wild type E. coli NCM3722, growth: C-lim chemostat, doubling time 12 h
[9] = wild type E. coli NCM3722, growth: N-lim chemostat, doubling time 6 h
[10] = wild type E. coli NCM3722, growth: N-lim chemostat, doubling time 12 h
[11] = wild type E. coli NCM3722, growth: P-lim chemostat, doubling time 6 h
[12] = wild type E. coli NCM3722, growth: P-lim chemostat, doubling time 12 h

Row | Sequence | total protein half-life in vivo [1] [h] | total protein half-life in vivo [2] [h] | total protein half-life in vivo [3] [h] | total protein half-life in vivo [4] [h] | total protein half-life in vivo [5] [h] | total protein half-life in vivo [6] [h] | total protein half-life in vivo [7] [h] | total protein half-life in vivo [8] [h] | total protein half-life in vivo [9] [h] | total protein half-life in vivo [10] [h] | total protein half-life in vivo [11] [h] | total protein half-life in vivo [12] [h]
1 | MSGFYHKHFLKLLDFTPAELNSLLQLAAKLKADKKSGKEEAKLTGKNIALIFEKDSTRTRCSFEVAAYDQGARVTYLGPSGSQIGHKESIKDTARVLGRMYDGIQYRGYGQEIVETLAEYASVPVWNGLTNEFHPTQLLADLLTMQEHLPGKAFNEMTLVYAGDARNNMGNSMLEAAALTGLDLRLVAPQACWPEAALVTECRALAQQNGGNITLTEDVAKGVEGADFIYTDVWVSMGEAKEKWAERIALLREYQVNSKMMQLTGNPEVKFLHCLPAFHDDQTTLGKKMAEEFGLHGGMEVTDEVFESAASIVFDQAENRMHTIKAVMVATLSK | 3.57 ± 0.61 | 2.14 ± 0.064 | 2.09 ± 0.27 | 2.62 ± 0.044 | 2.52 ± 0.042 | 2.9 ± 0.032 | 4.71 ± 0.28 | 7.42 ± 1.9 | 2.52 ± 0.23 | 3.48 ± 0.63 | 5.11 ± 0.34 | 8.84 ± 0.35
2 | MSGSNTAISRRRLLQGAGAMWLLSVSQVSLAAVSQVVAVRVWPASSYTRVTVESNRQLKYKQFALSNPERVVVDIEDVNLNSVLKGMAAQIRADDPFIKSARVGQFDPQTVRMVFELKQNVKPQLFALAPVAGFKERLVMDLYPANAQDMQDPLLALLEDYNKGDLEKQVPPAQSGPQPGKAGRDRPIVIMLDPGHGGEDSGAVGKYKTREKDVVLQIARRLRSLIEKEGNMKVYMTRNEDIFIPLQVRVAKAQKQRADLFVSIHADAFTSRQPSGSSVFALSTKGATSTAAKYLAQTQNASDLIGGVSKSGDRYVDHTMFDMVQSLTIADSLKFGKAVLNKLGKINKLHKNQVEQAGFAVLKAPDIPSILVETAFISNVEEERKLKTATFQQEVAESILAGIKAYFADGATLARRG | 4.83 ± 0.39 | 5.68 ± 1.5 | 5.1 ± 0.2 | 5.12 ± 0.18 | 4.18 ± 0.3 | 2.74 ± 0.23 | 4.852 ± 0.02 | 9.06 ± 0.98 | 5.19 ± 1.1 | 8.626 ± 0.061 | 5.29 ± 0.18 | 10.4 ± 0.28
3 | MSGTLLAFDFGTKSIGVAVGQRITGTARPLPAIKAQDGTPDWNIIERLLKEWQPDEIIVGLPLNMDGTEQPLTARARKFANRIHGRFGVEVKLHDERLSTVEARSGLFEQGGYRALNKGKVDSASAVIILESYFEQGY [P0A8I1] | 4.82 ± 0.066 | 4.88 | 3.57 ± 0.011 | 4.27 ± 0.32 | 3.5663 ± 0.00095 | 2.88 ± 0.18 | 5.4 ± 0.77 | 10.2 ± 0.33 | 3.8577 ± 0.0028 | 7.41 ± 2.2 | 4.95 ± 0.11 | 8.63 ± 2.5
4 | MSGWPRIYYKLLNLPLSILVKSKSIPADPAPELGLDTSRPIMYVLPYNSKADLLTLRAQCLAHDLPDPLEPLEIDGTLLPRYVFIHGGPRVFTYYTPKEESIKLFHDYLDLHRSNPNLDVQMVPVSVMFGRAPGREKGEVNPPLRMLNGVQKFFAVLWLGRDSFVRFSPSVSLRRMADEHGTDKTIAQKLARVARMHFARQRLAAVGPRLPARQDLFNKLLASRAIAKAVEDEARSKKISHEKAQQNAIALMEEIAANFSYEMIRLTDRILGFTWNRLYQGINVHNAERVRQLAHDGHELVYVPCHRSHMDYLLLSYVLYHQGLVPPHIAAGINLNFWPAGPIFRRLGAFFIRRTFKGNKLYSTVFREYLGELFSRGYSVEYFVEGGRSRTGRLLDPKTGTLSMTIQAMLRGGTRPITLIPIYIGYEHVMEVGTYAKELRGATKEKESLPQMLRGLSKLRNLGQGYVNFGEPMPLMTYLNQHVPDWRESIDPIEAVRPAWLTPTVNNIAADLMVRINNAGAANAMNLCCTALLASRQRSLTREQLTEQLNCYLDLMRNVPYSTDSTVPSASASELIDHALQMNKFEVEKDTIGDIIILPREQAVLMTYYRNNIAHMLVLPSLMAAIVTQHRHISRDVLMEHVNVLYPMLKAELFLRWDRDELPDVIDALANEMQRQGLITLQDDELHINPAHSRTLQLLAAGARETLQRYAITFWLLSANPSINRGTLEKESRTVAQRLSVLHGINAPEFFDKAVFSSLVLTLRDEGYISDSGDAEPAETMKVYQLLAELITSDVRLTIESATQGEG [P0A7A7] |  | 7.2 ± 0.25 | 6.63 ± 0.61 | 6.38 ± 0.65 | 6.36 ± 0.2 | 3.37 ± 0.17 | 6.4 ± 0.11 | 12.2 ± 1.3 | 6.249 ± 0.032 | 13.3 ± 0.35 | 6.79 ± 0.28 | 13.4 ± 1.5
5 | MSHHHEGCCKHEGQPRHEGCCKGEKSEHEHCGHGHQHEHGQCCGGRHGRGGGRRQRFFGHGELRLVILDILSRDDSHGYELIKAIENLTQGNYTPSPGVIYPTLDFLQEQSLITIREEEGGKKQIALTEQGAQWLEENREQVEMIEERIKARCVGAALRQNPQMKRALDNFKAVLDLRVNQSDISDAQIKKIIAVIDRAAFDITQLD | 4.91 ± 0.66 |  | 3.22 ± 0.047 | 4.273 ± 0.011 | 3.33 ± 0.41 | 2.55 ± 0.029 | 4.67 ± 0.56 | 8.76 ± 2.2 | 3.65 ± 0.74 | 5.05 ± 0.53 | 4.8 ± 0.27 | 8.64 ± 0.59
6 | MSHKPAHLLLVDDDPGLLKLLGLRLTSEGYSVVTAESGAEGLRVLNREKVDLVISDLRMDEMDGMQLFAEIQKVQPGMPVIILTAHGSIPDAVAATQQGVFSFLTKPVDKDALYQAIDDALEQSAPATDERWREAIVTRSPLMLRLLEQARLVAQSDVSVLINGQSGTGKEIFAQAIHNASPRNSKPFIAINCGALPEQLLESELFGHARGAFTGAVSNREGLFQAAEGGTLFLDEIGDMPAPLQVKLLRVLQERKVRPLGSNRDIDINVRIISATHRDLPKAMARGEFREDLYYRLNVVSLKIPALAERTEDIPLLANHLLRQAAERHKPFVRAFSTDAMKRLMTASWPGNVRQLVNVIEQCVALTSSPVISDALVEQALEGENTALPTFVEARNQFELNYLRKLLQITKGNVTHAARMAGRNRTEFYKLLSRHELDANDFKE [P0AFU4] | 6.81 ± 1.7 | 4.73 ± 0.42 | 4.48 ± 0.2 | 5 ± 0.17 | 4.45 ± 0.29 | 3.25 ± 0.19 | 5.86 ± 0.38 | 11 ± 2.4 | 4.26 ± 0.069 | 7.72 ± 0.09 | 5.4 ± 0.19 | 12 ± 0.29
